Data reported in article PMC6801465, “Efficient Epidermal Growth Factor Receptor Targeting Oligonucleotide as a Potential Molecule for Targeted Cancer Therapy”.

B1: CL-4RNV616 (XNA)
RNA: UGCUUUGAUGUCGAUUCGACAGGAGGC
modifications: 2'-OMe on U, G, C; all A (positions 8, 14, 19, 21, 24) are DNA
B2: CL-4RNV618 (structured_DNA)
DNA: TGCTTTGATGTCGATTCGACAGGAGGC
modifications: none (all DNA)
B3: CL-4 (XNA)
RNA: GCCUUAGUAACGUGCUUUGAUGUCGAUUCGACAGGAGGC
modifications: 2'-F on all C and U; A and G are RNA
B4: CL-4RNV617 (structured_RNA)
RNA: UGCUUUGAUGUCGAUUCGACAGGAGGC
modifications: none (all RNA)

Columns and labels:
[1] = target: T1, EGFR recombinant protein (Sino Biological 10001-H08H) (human, UniProt P00533 25-645); assay: ELONA; Binding buffer: serum-free DMEM + 100 ug/mL tRNA; aptamers denatured 95 C 5 min, snap cooled on ice 10 min; ELONA 1 h (temperature not given); flow cytometry Kd; conditions: protein: commercial, label: 5'-biotin (ELONA)
[2] = target: T1, EGFR recombinant protein (Sino …); assay: ELONA; 100 nM aptamer; Binding buffer: serum-free DMEM + 100 ug/mL tRNA; aptamers denatured 95 C 5 min, snap cooled on ice 10 min; ELONA 1 h (temperature not given); flow cytometry Kd; conditions: protein: commercial; label: 5'-biotin (ELONA)

Binder	binding result [2]	also measured
B1		Kd ([1]; 5'-FAM (cells)): 18.2 nM
B2	no binding	
B3		Kd [1]: 13.3 nM
B4	no binding	
